Tests used:
Hfq = Hfq (Escherichia coli, UniProt P0A6X3 1-102); test: fluorescence anisotropy; Anisotropy: buffer not given in material (as Geinguenaud 2011); pH ~5 stated for DNA complex formation; microscopy: Hfq stock in 50 mM Tris-HCl pH 7.5, 50 mM NH4Cl, 10% glycerol, 1 mM EDTA, exchanged to TE (10 mM Tris-HCl pH 8, 1 mM EDTA); TEM: 10 mM Tris-HCl, 1 mM EDTA, room temperature, 10 min; conditions: protein: recombinant; chain copies: 6; label: 5'-fluorescein
Hfq-CTR peptide = molecular target: T1, Hfq-CTR peptide (Escherichia coli, UniProt P0A6X3 64-102); test: FTIR and SRCD; pH ~5; Anisotropy: buffer not given in material (as Geinguenaud 2011); pH ~5 stated for DNA complex formation; microscopy: Hfq stock in 50 mM Tris-HCl pH 7.5, 50 mM NH4Cl, 10% glycerol, 1 mM EDTA, exchanged to TE (10 mM Tris-HCl pH 8, 1 mM EDTA); TEM: 10 mM Tris-HCl, 1 mM EDTA, room temperature, 10 min
T1 chain: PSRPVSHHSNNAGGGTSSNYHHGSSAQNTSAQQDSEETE

Hfq, sequence (P0A6X3 whole entry): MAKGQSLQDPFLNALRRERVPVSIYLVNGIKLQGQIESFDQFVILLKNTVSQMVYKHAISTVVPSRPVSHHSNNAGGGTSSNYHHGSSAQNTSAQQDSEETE

B1: dA20 (ssDNA)
DNA: AAAAAAAAAAAAAAAAAAAA
In the case of B1, the Kd (Hfq) is reported as 183 ± 8 nM.

B2: dA59 (ssDNA)
DNA: AAAAAAAAAAAAAAAAAAAAAAAAAAAAAAAAAAAAAAAAAAAAAAAAAAAAAAAAAAA
B2 was tested, and the Kd (Hfq) was 166 ± 16 nM.

B3: dA59 (spectroscopy) (ssDNA)
DNA: B2 DNA
B3: binds (Hfq-CTR peptide).

B4: dA7 (ssDNA)
DNA: AAAAAAA
Binder B4 has a Kd (Hfq) of 3500 ± 200 nM.
